Data published in US20090175873A1 (Scripps Research, published 2009).
Values belong to the molecule of their own block, whether it stands above or below them. Numbered stars: 1 amine (or outer) side, 2 acyl side, 3 side chain; on linkers, the order of the positions; unused ones are H or OH. Square brackets hold non-standard residues; d marks the D form. * marks the point of attachment. AzaAsn = aza-asparagine, NC(=O)CN(N[*:1])C(=O)[*:2]; (S,S)‑EPCOOEt = (S,S)-epoxide ethyl ester; CH:CH‑COOEt = CCOC(=O)/C=C/*; Suc = O=C(CCC(=O)[*:2])[*:1]; Cbz = O=C(OCc1ccccc1)*

What was measured:
human legumain = biological target: T1, human legumain (human, UniProt Q99538 19-323, limits assumed); assay: cell-based or functional assay
T1 sequence: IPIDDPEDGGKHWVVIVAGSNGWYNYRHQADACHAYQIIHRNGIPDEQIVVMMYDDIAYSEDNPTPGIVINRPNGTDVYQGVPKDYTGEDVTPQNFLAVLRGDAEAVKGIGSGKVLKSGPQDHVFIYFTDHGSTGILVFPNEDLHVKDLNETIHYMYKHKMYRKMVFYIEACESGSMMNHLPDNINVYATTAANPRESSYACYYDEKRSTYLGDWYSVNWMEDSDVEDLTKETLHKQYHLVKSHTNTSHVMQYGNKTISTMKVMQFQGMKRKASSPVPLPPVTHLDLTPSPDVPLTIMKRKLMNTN

[1] = biological target: recombinant legumain (Homo sapiens (Human)) (UniProt Q99538); assay: cell-based or functional assay
caspase 9, P55211 = biological target: T2, caspase 9, P55211
T2 chain: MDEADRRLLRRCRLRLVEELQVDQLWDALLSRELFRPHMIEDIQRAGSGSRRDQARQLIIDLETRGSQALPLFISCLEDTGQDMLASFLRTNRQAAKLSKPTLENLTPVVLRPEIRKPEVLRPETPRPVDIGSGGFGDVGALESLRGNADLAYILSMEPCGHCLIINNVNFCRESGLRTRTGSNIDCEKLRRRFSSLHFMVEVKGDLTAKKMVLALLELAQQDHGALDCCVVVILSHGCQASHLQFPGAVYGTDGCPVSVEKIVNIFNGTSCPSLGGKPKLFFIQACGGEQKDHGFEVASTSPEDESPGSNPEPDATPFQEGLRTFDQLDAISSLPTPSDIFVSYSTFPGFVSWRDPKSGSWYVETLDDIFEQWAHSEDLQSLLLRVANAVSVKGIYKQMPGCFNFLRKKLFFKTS

progelatinase A, P08253 = biological target: T3, progelatinase A, P08253
T3 chain: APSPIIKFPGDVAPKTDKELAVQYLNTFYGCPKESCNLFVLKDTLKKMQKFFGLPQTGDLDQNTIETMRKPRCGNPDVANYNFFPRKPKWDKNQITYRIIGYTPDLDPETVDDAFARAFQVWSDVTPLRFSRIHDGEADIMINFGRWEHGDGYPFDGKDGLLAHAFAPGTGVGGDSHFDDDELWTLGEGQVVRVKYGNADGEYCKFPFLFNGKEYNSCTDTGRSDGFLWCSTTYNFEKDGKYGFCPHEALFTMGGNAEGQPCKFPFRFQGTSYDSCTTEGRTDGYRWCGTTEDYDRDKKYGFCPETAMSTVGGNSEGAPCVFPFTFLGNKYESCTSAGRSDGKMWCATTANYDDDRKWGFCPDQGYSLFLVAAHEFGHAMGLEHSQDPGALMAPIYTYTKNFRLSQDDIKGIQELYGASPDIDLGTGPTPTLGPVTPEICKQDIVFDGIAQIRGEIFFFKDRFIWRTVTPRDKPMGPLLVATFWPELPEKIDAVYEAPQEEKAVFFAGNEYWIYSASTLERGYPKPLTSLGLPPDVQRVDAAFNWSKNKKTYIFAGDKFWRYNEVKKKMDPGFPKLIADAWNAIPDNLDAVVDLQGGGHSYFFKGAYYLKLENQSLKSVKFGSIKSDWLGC

[2] = biological target: T4, αvβ3 integrin (added to the legumain activity assays), P06756
T4 chain 1: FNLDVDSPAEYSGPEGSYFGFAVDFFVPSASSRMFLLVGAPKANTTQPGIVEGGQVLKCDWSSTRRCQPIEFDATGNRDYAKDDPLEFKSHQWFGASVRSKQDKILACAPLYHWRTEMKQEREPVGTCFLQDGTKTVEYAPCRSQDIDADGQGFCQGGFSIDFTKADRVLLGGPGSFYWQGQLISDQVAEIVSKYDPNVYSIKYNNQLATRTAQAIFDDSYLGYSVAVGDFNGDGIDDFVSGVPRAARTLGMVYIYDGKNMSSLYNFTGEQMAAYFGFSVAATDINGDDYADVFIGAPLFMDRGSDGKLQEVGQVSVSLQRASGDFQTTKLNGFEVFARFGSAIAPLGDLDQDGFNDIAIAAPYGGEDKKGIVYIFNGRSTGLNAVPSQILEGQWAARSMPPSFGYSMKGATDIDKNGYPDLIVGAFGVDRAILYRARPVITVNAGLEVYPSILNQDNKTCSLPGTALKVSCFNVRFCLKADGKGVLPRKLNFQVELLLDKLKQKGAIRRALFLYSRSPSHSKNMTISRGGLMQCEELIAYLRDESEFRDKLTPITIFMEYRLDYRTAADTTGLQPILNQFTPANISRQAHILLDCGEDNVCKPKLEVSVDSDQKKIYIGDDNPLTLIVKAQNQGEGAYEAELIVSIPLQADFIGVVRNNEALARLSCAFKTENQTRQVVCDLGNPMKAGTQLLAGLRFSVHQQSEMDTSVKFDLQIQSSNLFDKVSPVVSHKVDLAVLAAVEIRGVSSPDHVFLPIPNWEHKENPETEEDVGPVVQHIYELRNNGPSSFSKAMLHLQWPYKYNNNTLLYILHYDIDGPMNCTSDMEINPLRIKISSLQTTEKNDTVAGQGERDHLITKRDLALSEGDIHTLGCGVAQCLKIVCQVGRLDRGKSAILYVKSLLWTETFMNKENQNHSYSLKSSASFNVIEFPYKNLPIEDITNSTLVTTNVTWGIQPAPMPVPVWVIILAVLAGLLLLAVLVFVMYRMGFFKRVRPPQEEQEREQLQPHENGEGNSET
T4 chain 2: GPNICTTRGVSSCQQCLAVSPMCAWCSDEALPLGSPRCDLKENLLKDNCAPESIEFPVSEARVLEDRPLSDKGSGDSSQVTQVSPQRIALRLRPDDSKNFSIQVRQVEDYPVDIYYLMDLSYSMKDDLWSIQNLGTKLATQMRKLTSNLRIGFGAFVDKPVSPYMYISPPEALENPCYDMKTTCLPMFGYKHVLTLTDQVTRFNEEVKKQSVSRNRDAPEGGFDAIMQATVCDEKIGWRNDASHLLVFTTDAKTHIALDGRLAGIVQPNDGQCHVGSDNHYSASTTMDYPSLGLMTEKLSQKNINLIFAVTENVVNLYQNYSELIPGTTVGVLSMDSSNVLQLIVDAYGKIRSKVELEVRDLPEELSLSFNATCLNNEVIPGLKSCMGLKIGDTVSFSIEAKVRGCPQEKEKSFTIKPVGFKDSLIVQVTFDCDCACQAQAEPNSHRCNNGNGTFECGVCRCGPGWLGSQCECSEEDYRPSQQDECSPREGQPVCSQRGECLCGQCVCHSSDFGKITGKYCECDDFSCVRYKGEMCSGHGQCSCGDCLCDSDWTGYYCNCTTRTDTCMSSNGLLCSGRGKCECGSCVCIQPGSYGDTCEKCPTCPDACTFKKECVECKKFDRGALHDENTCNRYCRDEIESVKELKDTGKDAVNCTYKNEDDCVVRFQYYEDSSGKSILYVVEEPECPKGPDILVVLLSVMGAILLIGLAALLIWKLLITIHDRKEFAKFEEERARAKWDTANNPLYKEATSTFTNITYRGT

recombinant legumain = biological target: T5, recombinant legumain (Homo sapiens (Human), UniProt Q99538 19-323, limits assumed); assay: cell-based or functional assay
T5 sequence: T1 sequence

Molecule: cystatin
EC50 (µM) of LEG-3 for 50% cell death on Legumain+ 293 cells in the presence of cystatin (human legumain): 64.4 µM

B1: recombinant legumain (protein)
chain: T1 sequence
cleavage of caspase 9 and loss of caspase 9 activity (caspase 9, P55211): legumain efficiently inactivates caspase 9 and depletes the cell of pro-caspase 9
cathepsin B activity toward small peptidyl substrates (cathepsin B, P07858): cathepsin B activity toward small peptidyl substrates is not affected
zymogram: cleavage of MMP2 by legumain and legumain:αvβ3 (progelatinase A, P08253): legumain not only removes the pro-MMP2 propeptide but also cleaves MMP2 between its proteolytic domain and its integrin binding hemopexin domain
legumain amidolytic activity (hydrolysis of a substrate to a fluorescent product) [2]: binding of legumain to αvβ3 integrin can increase legumain activity nearly 100 fold

B2: LEG-3 (succinyl-Ala-Ala-Asn-Leu-doxorubicin) (peptide)
peptide: Suc-AANL-doxorubicin
modifications: not fully specified (residue 1); printed as succinyl-Ala-Ala-Asn-Leu-doxorubicin
EC50 (µM), amount required for 50% cell death, Legumain+ 293 cells (human legumain): 3.2 µM

Molecule: Cbz-Ala-Ala-[AzaAsn]-{(S,S)‑EPCOOEt} [AEPI-1 (Cbz-Ala-Ala-AzaAsn-(S,S)-EPCOOEt)]
IC50, amidolytic activity assay of recombinant legumain with fluorescent substrate (recombinant legumain): ~20 nM

Now from value to molecule:

pH of peak legumain activity in the legumain:αvβ3 complex [1]: 6 pH
Molecule: αvβ3 integrin (added to the legumain activity assays) (from UniProt P06756 31-1048; P05106 27-788) (receptor)

IC50, amidolytic activity assay of recombinant legumain with fluorescent substrate (recombinant legumain): ~21 nM
Molecule: Cbz-Ala-Ala-[AzaAsn]-{CH:CH‑COOEt} (SMILES CCOC(=O)/C=C/C(=O)N(CC(N)=O)NC(=O)[C@H](C)NC(=O)[C@H](C)NC(=O)OCc1ccccc1) [AEPI-2 (Cbz-Ala-Ala-AzaAsn-CH=CH-COOEt)]

IC50, amidolytic activity assay of recombinant legumain with fluorescent substrate (recombinant legumain): 34 nM
Molecule: Cbz-Ala-Ala-[AzaAsn]-{CH:CH‑COOBzl} [AEPI-3 (Cbz-Ala-Ala-AzaAsn-CH=CH-COOBzl)]

IC50, amidolytic activity assay of recombinant legumain with fluorescent substrate (recombinant legumain): 158 nM
Molecule: Cbz-Ala-Ala-[AzaAsn]-{CH:CH‑CON(CH3)Bzl} [AEPI-4 (Cbz-Ala-Ala-AzaAsn-CH=CH-CON(CH3)Bzl)]
